Biological target: T1, PAR-1 N-terminal tail peptide (TR33-62) (artificial)
T1 sequence (peptide): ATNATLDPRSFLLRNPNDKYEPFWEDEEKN

PAR-1 peptide (TR33-62) cleavage (% rwt-APC), catalytic efficiency by HPLC: 88 % rwt-APC
B1: KKK191-193AAA-APC (enzyme)
chain: ANSFLEELRHSSLERECIEEICDFEEAKEIFQNVDDTLAFWSKHVDGDQCLVLPLEHPCASLCCGHGTCIDGIGSFSCDCRSGWEGRFCQREVSFLNCSLDNGGCTHYCLEEVGWRRCSCAPGYKLGDDLLQCHPAVKFPCGRPWKRMEKKRSHLKRDTEDQEDQVDPRLIDGKMTRRGDSPWQVVLLDSAAALACGAVLIHPSWVLTAAHCMDESKKLLVRLGEYDLRRWEKWELDLDIKEVFVHPNYSKSTTDNDIALLHLAQPATLSQTIVPICLPDSGLAERELNQAGQETLVTGWGYHSSREKEAKRNRTFVLNFIKIPVVPHNECSEVMSNMVSENMLCAGILGDRQDACEGDSGGPMVASFHGTWFLVGLVSWGEGCGLLHNYGVYTKVSRYLDWIHGHIRDKEAPQKSWAP

From patent publication US9192657B2
